Assay results: publication PMC6889138
One block for each substance: values may come before it.

Assays:
[1] = molecular target: ^MsmClpP1 R168A, purified (Mycobacterium smegmatis); test: AUC; oligomeric state of each purified protein alone, in the absence of z-LL (Fig. S4)
[2] = molecular target: ^MsmClpP1, wild type, purified (Mycobacterium smegmatis); test: as above
[3] = molecular target: ^MsmClpP1, wild type, purified (Mycobacterium smegmatis); test: native gel or EMSA; 5 µg of purified protein on 4-16% Native-PAGE Novex Bis-Tris gels, stained with Coomassie Brilliant Blue R250
[4] = molecular target: ^MsmClpP1, wild type, purified (Mycobacterium smegmatis); test: crystal structure; ^MsmClpP1 crystallised by vapor diffusion at 20 °C from sodium malonate pH 6.6-6.8; one heptamer in the asymmetric unit, tetradecamer from crystallographically related heptamers; 2.0 Å
[5] = molecular target: ^MsmClpP2 R189A, purified (Mycobacterium smegmatis); test: AUC; oligomeric state of each purified protein alone, in the absence of z-LL (Fig. S4)
[6] = molecular target: ^MsmClpP1 Y110A (Mycobacterium smegmatis); test: native gel or EMSA; 5 µg of purified protein on 4-16% Native-PAGE Novex Bis-Tris gels, stained with Coomassie Brilliant Blue R250
[7] = molecular target: ^MsmClpP2, wild type, purified (Mycobacterium smegmatis); test: AUC; oligomeric state of each purified protein alone, in the absence of z-LL (Fig. S4)

Substance: ^MsmClpP1 R168A, purified (enzyme)
stoichiometry N [1]: 7

Substance: ^MsmClpP1, wild type, purified (enzyme)
stoichiometry N [2]: 7
stoichiometry N [3]: 14
stoichiometry N [4]: 14

Substance: ^MsmClpP1 Y110A (enzyme)
stoichiometry N [6]: 14

Second part, the substance after the results:

stoichiometry N [5]: 7
Substance: ^MsmClpP2 R189A, purified (enzyme)

stoichiometry N [7]: 7
Substance: ^MsmClpP2, wild type, purified (enzyme)
